# Test results reported in US20060286609A1 (BIOCHECK, published 2006).
# Substitutions are numbered along the chain they refer to.
# T1: Mouse Id2: Histidine (mouse, UniProt P41136 1-134, limits assumed)
# T1 construct: E. coli fusion protein (vector pGW07); also called m-Id2: His; not shown: His-tag
# T1 sequence (looked up): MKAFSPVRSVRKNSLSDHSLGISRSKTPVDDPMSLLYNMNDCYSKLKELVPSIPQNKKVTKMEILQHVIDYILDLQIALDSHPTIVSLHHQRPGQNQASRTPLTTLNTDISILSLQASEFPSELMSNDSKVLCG
# T2: Mouse Id1: Histidine (mouse, UniProt P20067-2 1-148)
# T2 construct: E. coli fusion protein (vector pGW07); also called m-Id1-His; not shown: His-tag
# T2 sequence: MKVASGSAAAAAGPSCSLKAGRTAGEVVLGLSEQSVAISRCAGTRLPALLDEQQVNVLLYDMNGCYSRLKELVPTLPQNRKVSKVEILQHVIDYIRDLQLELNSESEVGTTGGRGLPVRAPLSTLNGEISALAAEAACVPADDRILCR
# T3: Human Id2: Histidine (human, UniProt Q02363 1-134, limits assumed)
# T3 construct: E. coli fusion protein (vector pGW07); also called h-Id2: His; not shown: His-tag
# T3 sequence (looked up): T1 sequence (looked up) with T60S, V131A
# T4: Human Id3: Histidine (human, UniProt Q02535 1-119, limits assumed)
# T4 construct: E. coli fusion protein (vector pGW07); also called h-Id3: His; not shown: His-tag
# T4 sequence (looked up): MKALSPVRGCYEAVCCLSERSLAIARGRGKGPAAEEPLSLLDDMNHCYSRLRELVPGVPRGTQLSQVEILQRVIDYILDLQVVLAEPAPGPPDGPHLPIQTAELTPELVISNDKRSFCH
# B1: rabbit monoclonal anti-mouse Id1, clone #BCH-1/#37-2 (antibody, V domains shown)
# VH: QSVEESGGRLVTPGTPLTLTCKVSGFDINSYAMDWFRQAPGKGLEWIGMMSTRGNTYYTSWAKGRFTISKTSSTTVDLKMTSLTTEDTATYFCARGGLWGPGTLVTVSS
# VL: RVLTQTASPVSAAVGGTVTINCQASQSVYNGNRLGWYQLKPGQSPKELIHDASTLASGVPSRFRGSGSGTQFTLTINDVQCDDAATYYCVGSYACSTGDCNVFGGGTEVVVK
# notes: Rabbit IgG from hybridoma, Protein G purified; also called m Id1 MoAb 37-2; Rabbit Monoclonal Anti-Mouse Id1 (#37-2)
# Columns and labels:
# Mouse Id2: Histidine = molecular target: T1, Mouse Id2: Histidine; assay: ELISA, coated antigen; relative to human Id1
# [1] = molecular target: Human Id1: Histidine (human) (UniProt P41134); assay: sandwich ELISA, 5-3-coated wells, human Id1:His 5.0 ng/ml, detected with rabbit polyclonal B-5133-HRP
# Human Id1: Histidine (human), sequence (P41134 whole entry): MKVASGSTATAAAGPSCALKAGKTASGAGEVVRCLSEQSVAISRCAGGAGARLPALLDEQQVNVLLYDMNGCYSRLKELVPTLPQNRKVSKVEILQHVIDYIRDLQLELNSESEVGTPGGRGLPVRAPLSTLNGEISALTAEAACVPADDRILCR
# [2] = molecular target: Human Id1: Histidine (human) (UniProt P41134); assay: sandwich ELISA, 5-3-coated wells, human Id1:His 10.0 ng/ml, detected with rabbit polyclonal B-5133-HRP
# [3] = molecular target: Human Id1: Histidine (human) (UniProt P41134); assay: ELISA, coated antigen, Ab 0.25 ug/ml
# [4] = molecular target: Human Id1: Histidine (human) (UniProt P41134); assay: ELISA, coated antigen, Ab 0.50 ug/ml
# [5] = molecular target: Human Id1: Histidine (human) (UniProt P41134); assay: ELISA, coated antigen, Ab 2.50 ug/ml
# [6] = molecular target: Human Id1: Histidine (human) (UniProt P41134); assay: ELISA, coated antigen, Ab 0 ug/ml (blank)
# [7] = molecular target: T5, glutathione S-transferase (GST) (UniProt P08515 1-218 = GST); assay: ELISA, coated antigen, Ab 10.0 ug/ml
# T5 construct: Coated on wells as control for the fusion partner of the immunogen
# T5 sequence (P08515 whole entry, the tested form may be a part): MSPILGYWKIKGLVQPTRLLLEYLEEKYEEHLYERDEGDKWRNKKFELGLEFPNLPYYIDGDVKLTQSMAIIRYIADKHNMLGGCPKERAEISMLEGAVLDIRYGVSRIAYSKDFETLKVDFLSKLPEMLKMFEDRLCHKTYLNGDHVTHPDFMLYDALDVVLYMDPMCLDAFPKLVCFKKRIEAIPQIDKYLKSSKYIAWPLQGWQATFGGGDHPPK
# Description: (§1) Incubate plates at 2-8° C. overnight (16-24 hours). [0145] 11. Shake off the BSA solution. [0146] 12. Dispense 250 μL of 2.5% sucrose solution into each well. [0147] 13. Incubate plates at 2-8° C. for 4 hours. [0148] 14. Shake off sucrose solution. [0149] 15. Dry in vacuum at room temperature overnight. Screening Method [0150] 1. Dispense 100 μL of antibody diluent, diluted rabbit polyclonal anti-Id1 into appropriate wells. […] 2. Incubate at room temperature with mechanical shaking at 750 rpm for 90 minutes. [0152] 3. Remove the incubation mixture by flicking plate content into an appropriate waste container, followed by rinsing the wells 5 times with distilled water. […] 4. Strike the wells sharply onto absorbent paper or paper towels to remove all residual water droplets. [0154] 5. Dispense 100 μL of Goat Anti-Rabbit IgG-HRP Conjugate Reagent into each well. Gently mix for 5 seconds. [0155] 6. Incubate at room temperature with mechanical shaking at 750 rpm for 90 minutes. […] 7. Repeat procedures 3 and 4. [0157] 8. Dispense 100 μL of TMB Reagent into each well. Gently mix for 5 seconds. [0158] 9. Incubate at room temperature with mechanical shaking at 750 rpm for 20 minutes. [0159] 10. Add 100 μL of Stop Solution (1N HCl) into each well. [0160] 11. Gently mix for 10 seconds to ensure a complete mixing. […] 12. Read optical density (absorbance) at 450 nm. Results from this assay were used to select the rabbit sera with the highest antibodies titer that selectively reacts with mouse Id1 or human Id1 or both.
# (§2) A comparison was carried out between the reactivity of the rabbit monoclonal anti-mouse Id1, clone #BCH-1/#37-2, of this invention and the mouse monoclonal anti-mouse/human Id1 from BD Pharmingen with the following antigens prepared in Example 5: mouse Id1:His, human Id1:His, human Id2:His, human Id3:His, and GST. These antigens and protein were used to coat the wells.
# (§3) Materials and methods were those described in Example 9 except (a) Pharmingen's mouse monoclonal anti-mouse Id1 was used in addition to the rabbit monoclonal anti-mouse Id1 (Example 10), and (b) goat anti-mouse IgG-HRP conjugate was used to process the wells treated with the Pharmingen monoclonal antibody and polyclonal goat anti-rabbit IgG-HRP conjugate was used to process wells treated with rabbit monoclonal anti-mouse Id1.
# [8] = molecular target: T5, glutathione S-transferase (GST); assay: ELISA, coated antigen, Ab 5.00 ug/ml
# Description: as §1, §2, §3
# Mouse Id1: Histidine [9] = molecular target: T2, Mouse Id1: Histidine; assay: ELISA, coated antigen, Ab 5.00 ug/ml
# Description: as §1, §2, §3
# Human Id2: Histidine [10] = molecular target: T3, Human Id2: Histidine; assay: ELISA, coated antigen, Ab 5.00 ug/ml
# Description: as §1, §2, §3
# Human Id3: Histidine [11] = molecular target: T4, Human Id3: Histidine; assay: ELISA, coated antigen, Ab 5.00 ug/ml
# Description: as §1, §2, §3
# [12] = molecular target: T5, glutathione S-transferase (GST); assay: ELISA, coated antigen, Ab 0 ug/ml (blank)
# Description: as §1, §2, §3
# Mouse Id1: Histidine [13] = molecular target: T2, Mouse Id1: Histidine; assay: ELISA, coated antigen, Ab 0 ug/ml (blank)
# Description: as §1, §2, §3
# Human Id2: Histidine [14] = molecular target: T3, Human Id2: Histidine; assay: ELISA, coated antigen, Ab 0 ug/ml (blank)
# Description: as §1, §2, §3
# Human Id3: Histidine [15] = molecular target: T4, Human Id3: Histidine; assay: ELISA, coated antigen, Ab 0 ug/ml (blank)
# Description: as §1, §2, §3
Molecule,Cross-reactivity (%) (Mouse Id2: Histidine),A450 [1] [A450],A450 [2] [A450],A450 [3] [A450],A450 [4] [A450],A450 [5] [A450],A450 [6] [A450],A450 [7] [A450],A450 [8] [A450],A450 (Mouse Id1: Histidine [9]) [A450],A450 (Human Id2: Histidine [10]) [A450],A450 (Human Id3: Histidine [11]) [A450],A450 [12] [A450],A450 (Mouse Id1: Histidine [13]) [A450],A450 (Human Id2: Histidine [14]) [A450],A450 (Human Id3: Histidine [15]) [A450]
"rabbit monoclonal anti-human Id1, clone #BCH-2/#5-3 (antibody)",< 1,0.365,0.815,–,–,–,–,–,–,–,–,–,–,–,–,–
B1,–,–,–,0.07,0.091,0.132,0.047,0.108,0.086,3.26,0.083,0.091,0.047,0.047,0.045,0.046
